Values belong to the substance of their own block, whether it stands above or below them.
How the values were obtained:
[1] = target: endogenous IL-3 receptors of BaF3 cells (UniProt P26952); assay: cell-based or functional assay
[2] = target: full-length human G-CSF receptor (human) (UniProt Q99062); assay: cell-based or functional assay
Sequence of UniProt Q99062 (Q99062 25-836): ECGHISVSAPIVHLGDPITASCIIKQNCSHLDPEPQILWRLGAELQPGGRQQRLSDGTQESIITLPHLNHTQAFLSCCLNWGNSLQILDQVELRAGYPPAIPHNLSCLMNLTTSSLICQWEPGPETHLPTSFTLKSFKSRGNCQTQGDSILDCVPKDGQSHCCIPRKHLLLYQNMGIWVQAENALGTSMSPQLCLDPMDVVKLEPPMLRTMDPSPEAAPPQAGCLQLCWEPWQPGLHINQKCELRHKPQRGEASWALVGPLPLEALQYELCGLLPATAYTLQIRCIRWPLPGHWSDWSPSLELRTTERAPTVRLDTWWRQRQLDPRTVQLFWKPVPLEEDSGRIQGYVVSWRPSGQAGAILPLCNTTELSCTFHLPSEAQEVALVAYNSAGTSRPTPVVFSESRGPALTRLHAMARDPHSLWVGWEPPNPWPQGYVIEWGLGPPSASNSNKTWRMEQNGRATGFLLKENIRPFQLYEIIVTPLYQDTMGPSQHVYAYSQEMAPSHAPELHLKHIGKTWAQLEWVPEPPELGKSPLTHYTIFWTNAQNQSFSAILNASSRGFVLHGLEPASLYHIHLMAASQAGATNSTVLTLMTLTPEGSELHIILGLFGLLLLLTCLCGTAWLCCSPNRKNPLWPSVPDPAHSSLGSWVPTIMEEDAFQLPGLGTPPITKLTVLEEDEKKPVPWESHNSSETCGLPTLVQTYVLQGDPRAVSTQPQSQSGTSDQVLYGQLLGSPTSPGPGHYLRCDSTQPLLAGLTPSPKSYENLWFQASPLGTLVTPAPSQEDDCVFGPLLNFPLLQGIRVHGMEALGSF

Sequence of UniProt P26952 (P26952 17-396): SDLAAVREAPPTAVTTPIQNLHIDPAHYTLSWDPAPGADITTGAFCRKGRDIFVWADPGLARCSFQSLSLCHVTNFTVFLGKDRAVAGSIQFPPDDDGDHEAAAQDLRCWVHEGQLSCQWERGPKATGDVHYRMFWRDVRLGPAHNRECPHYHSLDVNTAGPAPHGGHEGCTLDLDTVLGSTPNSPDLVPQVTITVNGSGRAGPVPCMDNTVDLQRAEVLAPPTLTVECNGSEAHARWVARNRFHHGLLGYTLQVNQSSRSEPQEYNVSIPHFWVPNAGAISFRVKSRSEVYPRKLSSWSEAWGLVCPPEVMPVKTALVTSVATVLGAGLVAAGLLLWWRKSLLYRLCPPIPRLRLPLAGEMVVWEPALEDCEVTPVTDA

PLAP reporter activity (4-MU fluorescence 360/460 nm), +IL-3, - filtration; 3X-RS-pGTPLAP in BaF3, 25 ng/ml rMuIL-3 [1]: 85
PLAP reporter activity, +IL-3, + filtration; 3X-RS-pGTPLAP in BaF3 [1]: 82
PLAP reporter activity, +IL-3, + filtration; 6X-RS-pGTPLAP in BaF3 [1]: 177
PLAP reporter activity, +IL-3, + filtration; 9X-RS-pGTPLAP in BaF3 [1]: 257
PLAP reporter activity, +IL-3, + filtration; 12X-RS-pGTPLAP in BaF3 [1]: 384
PLAP reporter activity, +IL-3, + filtration; Greater than 12X-RS-pGTPLAP in BaF3 [1]: 389
PLAP reporter activity, +IL-3, - filtration; 6X-RS-pGTPLAP in BaF3 [1]: 175
PLAP reporter activity, +IL-3, - filtration; 9X-RS-pGTPLAP in BaF3 [1]: 276
PLAP reporter activity, +IL-3, - filtration; 12X-RS-pGTPLAP in BaF3 [1]: 402
PLAP reporter activity, +IL-3, - filtration; Greater than 12X-RS-pGTPLAP in BaF3 [1]: 384
PLAP reporter activity, +IL-3, average - baseline; 3X-RS-pGTPLAP in BaF3 [1]: 70
PLAP reporter activity, +IL-3, average - baseline; 6X-RS-pGTPLAP in BaF3 [1]: 160
PLAP reporter activity, +IL-3, average - baseline; 9X-RS-pGTPLAP in BaF3 [1]: 250
PLAP reporter activity, +IL-3, average - baseline; 12X-RS-pGTPLAP in BaF3 [1]: 375
PLAP reporter activity, +IL-3, average - baseline; Greater than 12X-RS-pGTPLAP in BaF3 [1]: 370
fold stimulation (avg +IL-3 / avg -IL-3); 3X-RS-pGTPLAP in BaF3 [1]: 3.5 fold
fold stimulation (avg +IL-3 / avg -IL-3); 6X-RS-pGTPLAP in BaF3 [1]: 5.4 fold
fold stimulation (avg +IL-3 / avg -IL-3); 9X-RS-pGTPLAP in BaF3 [1]: 6.2 fold
fold stimulation (avg +IL-3 / avg -IL-3); 12X-RS-pGTPLAP in BaF3 [1]: 8.4 fold
fold stimulation (avg +IL-3 / avg -IL-3); Greater than 12X-RS-pGTPLAP in BaF3 [1]: 11.2 fold
Substance: recombinant murine interleukin-3 (from UniProt P01586 33-166) (ligand)

luminescence output-fold stimulation over background (assay medium alone); luciferase reporter, HuG-CSFR-luc (clone 40) cells, 0.8 ng/mL and 5.0 ng/mL GCSF, four hours [2]: 3 fold
Substance: G-CSF (ligand)

Reference: patent US7892733
